Assays:
NGF = test: cell-based or functional assay
FGFR3 = test: cell-based or functional assay

Chain of NGF (P01138 122-241): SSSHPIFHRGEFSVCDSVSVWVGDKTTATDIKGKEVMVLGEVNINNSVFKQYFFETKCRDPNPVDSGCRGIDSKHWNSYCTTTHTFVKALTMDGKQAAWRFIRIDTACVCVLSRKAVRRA

| Binder | anti-NGF IC50 (nM), U2OS TrkA_p75 assay; construct from HEK293 (NGF) [nM] | anti-NGF IC50 (nM), U2OS TrkA_p75 assay; construct from expiCHO-S (NGF) [nM] | FGF18 EC50 (nM), BaF3/FGFR3 assay; construct from HEK293 (FGFR3) [nM] | FGF18 EC50 (nM), BaF3/FGFR3 assay; construct from expiCHO-S (FGFR3) [nM] |
| --- | --- | --- | --- | --- |
| FGF18_Fab fasinumab (LH) (other) light: EENVDFRIHVENQTRARDDVSRKQLRLYQLYSRTSGKHIQVLGRRISARGEDGDKYAQLLVETDTFGSQVRIKGKETEFYLCMNRKGKLVGKPDGTSKECVFIEKVLENNYTALMSAKYSGWYVGFTKKGRPRKGPKTRENQQDVHFMKRYPKGQPELQKPFKYTTVTKGGGGSGGGGSDIQMTQSPSSLSASAGDRVTITCRASQAIRNDLGWYQQKPGKAPKRLIYAAFNLQSGVPSRFSGSGSGTEFTLTISSLQPEDLASYYCQQYNRYPWTFGQGTKVEIKRTVAAPSVFIFPPSDEQLKSGTASVVCLLNNFYPREAKVQWKVDNALQSGNSQESVTEQDSKDSTYSLSSTLTLSKADYEKHKVYACEVTHQGLSSPVTKSFNRGEC heavy: QVQLVQSGAEVKKPGASVKVSCKVSGFTLTELSIHWVRQAPGKGLEWMGGFDPEDGETIYAQKFQGRVTMTEDTSTDTAYMELTSLRSEDTAVYYCSTIFGVVTNFDNWGQGTLVTVSSASTKGPSVFPLAPSSKSTSGGTAALGCLVKDYFPEPVTVSWNSGALTSGVHTFPAVLQSSGLYSLSSVVTVPSSSLGTQTYICNVNHKPSNTKVDKKVEPKSC | 0.54 | 1.56 | 0.27 | 0.1 |
| FGF18_Fab tanezumab (LH) (other) light: not shown heavy: QVQLQESGPGLVKPSETLSLTCTVSGFSLIGYDLNWIRQPPGKGLEWIGIIWGDGTTDYNSAVKSRVTISKDTSKNQFSLKLSSVTAADTAVYYCARGGYWYATSYYFDYWGQGTLVTVSSASTKGPSVFPLAPSSKSTSGGTAALGCLVKDYFPEPVTVSWNSGALTSGVHTFPAVLQSSGLYSLSSVVTVPSSSLGTQTYICNVNHKPSNTKVDKKVEPKSC | 0.52 | 0.86 | 0.21 | 0.08 |
| FGF18_Fab fulranumab (LH) (other) light: not shown heavy: EVQLVESGGGLVQPGGSLRLSCAASGFTLRSYSMNWVRQAPGKGLEWVSYISRSSHTIFYADSVKGRFTISRDNAKNSLYLQMDSLRDEDTAMYYCARVYSSGWHVSDYFDYWGQGILVTVSSASTKGPSVFPLAPSSKSTSGGTAALGCLVKDYFPEPVTVSWNSGALTSGVHTFPAVLQSSGLYSLSSVVTVPSSSLGTQTYICNVNHKPSNTKVDKKVEPKSC |  | 1.61 |  | 0.07 |
| FGF18_Fab tanezumab (HL) (other) heavy: EENVDFRIHVENQTRARDDVSRKQLRLYQLYSRTSGKHIQVLGRRISARGEDGDKYAQLLVETDTFGSQVRIKGKETEFYLCMNRKGKLVGKPDGTSKECVFIEKVLENNYTALMSAKYSGWYVGFTKKGRPRKGPKTRENQQDVHFMKRYPKGQPELQKPFKYTTVTKGGGGSGGGGSQVQLQESGPGLVKPSETLSLTCTVSGFSLIGYDLNWIRQPPGKGLEWIGIIWGDGTTDYNSAVKSRVTISKDTSKNQFSLKLSSVTAADTAVYYCARGGYWYATSYYFDYWGQGTLVTVSSASTKGPSVFPLAPSSKSTSGGTAALGCLVKDYFPEPVTVSWNSGALTSGVHTFPAVLQSSGLYSLSSVVTVPSSSLGTQTYICNVNHKPSNTKVDKKVEPKSC light: not shown |  | 0.84 |  | 0.05 |
| FGF18_Fab fulranumab (HL) (other) heavy: EENVDFRIHVENQTRARDDVSRKQLRLYQLYSRTSGKHIQVLGRRISARGEDGDKYAQLLVETDTFGSQVRIKGKETEFYLCMNRKGKLVGKPDGTSKECVFIEKVLENNYTALMSAKYSGWYVGFTKKGRPRKGPKTRENQQDVHFMKRYPKGQPELQKPFKYTTVTKGGGGSGGGGSEVQLVESGGGLVQPGGSLRLSCAASGFTLRSYSMNWVRQAPGKGLEWVSYISRSSHTIFYADSVKGRFTISRDNAKNSLYLQMDSLRDEDTAMYYCARVYSSGWHVSDYFDYWGQGILVTVSSASTKGPSVFPLAPSSKSTSGGTAALGCLVKDYFPEPVTVSWNSGALTSGVHTFPAVLQSSGLYSLSSVVTVPSSSLGTQTYICNVNHKPSNTKVDKKVEPKSC light: not shown |  | 1.07 |  | 0.06 |
| FGF18_Fab fasinumab (HL) (other) heavy: EENVDFRIHVENQTRARDDVSRKQLRLYQLYSRTSGKHIQVLGRRISARGEDGDKYAQLLVETDTFGSQVRIKGKETEFYLCMNRKGKLVGKPDGTSKECVFIEKVLENNYTALMSAKYSGWYVGFTKKGRPRKGPKTRENQQDVHFMKRYPKGQPELQKPFKYTTVTKGGGGSGGGGSQVQLVQSGAEVKKPGASVKVSCKVSGFTLTELSIHWVRQAPGKGLEWMGGFDPEDGETIYAQKFQGRVTMTEDTSTDTAYMELTSLRSEDTAVYYCSTIFGVVTNFDNWGQGTLVTVSSASTKGPSVFPLAPSSKSTSGGTAALGCLVKDYFPEPVTVSWNSGALTSGVHTFPAVLQSSGLYSLSSVVTVPSSSLGTQTYICNVNHKPSNTKVDKKVEPKSC light: DIQMTQSPSSLSASAGDRVTITCRASQAIRNDLGWYQQKPGKAPKRLIYAAFNLQSGVPSRFSGSGSGTEFTLTISSLQPEDLASYYCQQYNRYPWTFGQGTKVEIKRTVAAPSVFIFPPSDEQLKSGTASVVCLLNNFYPREAKVQWKVDNALQSGNSQESVTEQDSKDSTYSLSSTLTLSKADYEKHKVYACEVTHQGLSSPVTKSFNRGEC |  | 1.33 |  | 0.06 |
| FGF18 SEED tanezumab (MBE626) (other) EENVDFRIHVENQTRARDDVSRKQLRLYQLYSRTSGKHIQVLGRRISARGEDGDKYAQLLVETDTFGSQVRIKGKETEFYLCMNRKGKLVGKPDGTSKECVFIEKVLENNYTALMSAKYSGWYVGFTKKGRPRKGPKTRENQQDVHFMKRYPKGQPELQKPFKYTTVTKGGSGGSGSGSEPKSSDKTHTCPPCPAPEAAGGPSVFLFPPKPKDTLMISRTPEVTCVVVDVSHEDPEVKFNWYVDGVEVHNAKTKPREEQYNSTYRVVSVLTVLHQDWLNGKEYKCKVSNKALPAPIEKTISKAKGQPFRPEVHLLPPSREEMTKNQVSLTCLARGFYPKDIAVEWESNGQPENNYKTTPSRQEPSQGTTTFAVTSKLTVDKSRWQQGNVFSCSVMHEALHNHYTQKTISLSPGK heavy: QVQLQESGPGLVKPSETLSLTCTVSGFSLIGYDLNWIRQPPGKGLEWIGIIWGDGTTDYNSAVKSRVTISKDTSKNQFSLKLSSVTAADTAVYYCARGGYWYATSYYFDYWGQGTLVTVSSASTKGPSVFPLAPSSKSTSGGTAALGCLVKDYFPEPVTVSWNSGALTSGVHTFPAVLQSSGLYSLSSVVTVPSSSLGTQTYICNVNHKPSNTKVDKKVEPKSCDKTHTCPPCPAPEAAGGPSVFLFPPKPKDTLMISRTPEVTCVVVDVSHEDPEVKFNWYVDGVEVHNAKTKPREEQYNSTYRVVSVLTVLHQDWLNGKEYKCKVSNKALPAPIEKTISKAKGQPREPQVYTLPPPSEELALNELVTLTCLVKGFYPSDIAVEWLQGSQELPREKYLTWAPVLDSDGSFFLYSILRVAAEDWKKGDTFSCSVMHEALHNRFTQKSLDRSPGK light: not shown |  | 0.44 |  | 0.05 |
| FGF18 SEED fasinumab (SEED-A) (other) EENVDFRIHVENQTRARDDVSRKQLRLYQLYSRTSGKHIQVLGRRISARGEDGDKYAQLLVETDTFGSQVRIKGKETEFYLCMNRKGKLVGKPDGTSKECVFIEKVLENNYTALMSAKYSGWYVGFTKKGRPRKGPKTRENQQDVHFMKRYPKGQPELQKPFKYTTVTKGGGGSGGGGSDKTHTCPPCPAPEAAGGPSVFLFPPKPKDTLMISRTPEVTCVVVDVSHEDPEVKFNWYVDGVEVHNAKTKPREEQYNSTYRVVSVLTVLHQDWLNGKEYKCKVSNKALPAPIEKTISKAKGQPFRPEVHLLPPSREEMTKNQVSLTCLARGFYPKDIAVEWESNGQPENNYKTTPSRQEPSQGTTTFAVTSKLTVDKSRWQQGNVFSCSVMHEALHNHYTQKTISLSPGK heavy: QVQLVQSGAEVKKPGASVKVSCKVSGFTLTELSIHWVRQAPGKGLEWMGGFDPEDGETIYAQKFQGRVTMTEDTSTDTAYMELTSLRSEDTAVYYCSTIFGVVTNFDNWGQGTLVTVSSASTKGPSVFPLAPSSKSTSGGTAALGCLVKDYFPEPVTVSWNSGALTSGVHTFPAVLQSSGLYSLSSVVTVPSSSLGTQTYICNVNHKPSNTKVDKKVEPKSCDKTHTCPPCPAPEAAGGPSVFLFPPKPKDTLMISRTPEVTCVVVDVSHEDPEVKFNWYVDGVEVHNAKTKPREEQYNSTYRVVSVLTVLHQDWLNGKEYKCKVSNKALPAPIEKTISKAKGQPREPQVYTLPPPSEELALNELVTLTCLVKGFYPSDIAVEWLQGSQELPREKYLTWAPVLDSDGSFFLYSILRVAAEDWKKGDTFSCSVMHEALHNRFTQKSLDRSPGK light: DIQMTQSPSSLSASAGDRVTITCRASQAIRNDLGWYQQKPGKAPKRLIYAAFNLQSGVPSRFSGSGSGTEFTLTISSLQPEDLASYYCQQYNRYPWTFGQGTKVEIKRTVAAPSVFIFPPSDEQLKSGTASVVCLLNNFYPREAKVQWKVDNALQSGNSQESVTEQDSKDSTYSLSSTLTLSKADYEKHKVYACEVTHQGLSSPVTKSFNRGEC |  | 0.29 |  | 0.14 |
| FGF18 SEED fulranumab (SEED-B) (other) EENVDFRIHVENQTRARDDVSRKQLRLYQLYSRTSGKHIQVLGRRISARGEDGDKYAQLLVETDTFGSQVRIKGKETEFYLCMNRKGKLVGKPDGTSKECVFIEKVLENNYTALMSAKYSGWYVGFTKKGRPRKGPKTRENQQDVHFMKRYPKGQPELQKPFKYTTVTKGGGGSGGGGSDKTHTCPPCPAPEAAGGPSVFLFPPKPKDTLMISRTPEVTCVVVDVSHEDPEVKFNWYVDGVEVHNAKTKPREEQYNSTYRVVSVLTVLHQDWLNGKEYKCKVSNKALPAPIEKTISKAKGQPFRPEVHLLPPSREEMTKNQVSLTCLARGFYPKDIAVEWESNGQPENNYKTTPSRQEPSQGTTTFAVTSKLTVDKSRWQQGNVFSCSVMHEALHNHYTQKTISLSPGK heavy: EVQLVESGGGLVQPGGSLRLSCAASGFTLRSYSMNWVRQAPGKGLEWVSYISRSSHTIFYADSVKGRFTISRDNAKNSLYLQMDSLRDEDTAMYYCARVYSSGWHVSDYFDYWGQGILVTVSSASTKGPSVFPLAPSSKSTSGGTAALGCLVKDYFPEPVTVSWNSGALTSGVHTFPAVLQSSGLYSLSSVVTVPSSSLGTQTYICNVNHKPSNTKVDKKVEPKSCDKTHTCPPCPAPEAAGGPSVFLFPPKPKDTLMISRTPEVTCVVVDVSHEDPEVKFNWYVDGVEVHNAKTKPREEQYNSTYRVVSVLTVLHQDWLNGKEYKCKVSNKALPAPIEKTISKAKGQPREPQVYTLPPPSEELALNELVTLTCLVKGFYPSDIAVEWLQGSQELPREKYLTWAPVLDSDGSFFLYSILRVAAEDWKKGDTFSCSVMHEALHNRFTQKSLDRSPGK light: not shown |  | 0.25 |  | 0.06 |
